Reference: patent US20140087995A1 (published 2014)
Numbered stars: 1 amine (or outer) side, 2 acyl side, 3 side chain; on linkers, the order of the positions; unused ones are H or OH. Bridge positions count the residues as written; N and C are the ends. Side chains are listed from the residue outwards. Ends that are not written are not given here. * marks the point of attachment. C20 diacid = O=C(O)CCCCCCCCCCCCCCCCCCC(=O)*; γGlu = O=C(O)[C@H](CCC(=O)[*:2])N[*:1]; AEEA = NCCOCCOCC(=O)O

T1: human amylin receptor (amylin 3(a) receptor: human calcitonin receptor with RAMP-3) (human, UniProt P30988 25-474; O60896 24-148)
T1 construct: whole, on cells; also called hAmylin-R; hAmylinR
T1 sequence (looked up) 1: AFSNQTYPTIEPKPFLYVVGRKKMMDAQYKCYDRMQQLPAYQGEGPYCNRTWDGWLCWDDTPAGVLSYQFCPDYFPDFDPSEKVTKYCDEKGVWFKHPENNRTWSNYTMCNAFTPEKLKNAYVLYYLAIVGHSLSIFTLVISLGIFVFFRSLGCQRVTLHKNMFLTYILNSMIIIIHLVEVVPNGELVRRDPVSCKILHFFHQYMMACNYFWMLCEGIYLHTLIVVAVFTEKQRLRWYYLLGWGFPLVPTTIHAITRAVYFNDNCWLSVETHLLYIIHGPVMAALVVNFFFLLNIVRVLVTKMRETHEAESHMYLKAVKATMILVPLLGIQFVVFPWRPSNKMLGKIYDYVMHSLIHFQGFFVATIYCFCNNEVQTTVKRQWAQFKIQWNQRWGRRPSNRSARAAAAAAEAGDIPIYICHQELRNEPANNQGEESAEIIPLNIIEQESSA
T1 sequence (looked up) 2: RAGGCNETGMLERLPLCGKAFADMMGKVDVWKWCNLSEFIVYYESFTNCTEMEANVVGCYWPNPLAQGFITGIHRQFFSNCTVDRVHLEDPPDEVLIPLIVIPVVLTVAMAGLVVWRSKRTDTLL

T2: human amylin receptor (human, UniProt P30988 25-474; O60896 24-148, limits assumed)
T2 construct: whole, on cells; Calcitonin receptor plus RAMP-3 gives the amylin 3(a) receptor; membranes of Amylin 3(a)/CRE-luc cells were used; also called hAmylin-R; hAmylinR
T2 sequence (looked up) 1: T1 sequence (looked up) 1
T2 sequence (looked up) 2: T1 sequence (looked up) 2

B1: N^α1-[2-[2-[2-[[2-[2-[2-[[(4S)-4-carboxy-4-(19-carboxynonadecanoylamino)butanoyl]amino]ethoxy]ethoxy]acetyl]amino]ethoxy]ethoxy]acetyl]-[Glu14,Arg17,Pro21,Pro27 … (peptide)
peptide: KCNTATCATQRLAEFLRHSSPNFGAIPSSTNVGSNTY
modifications: C20 diacid-gGlu-2xOEG on alpha amino group of N-terminal Lys 1; Cys2-Cys7 disulfide; C-terminal amide
notes: also called 19; compound 19
B2: N^-1-[(4S)-4-carboxy-4-(19-carboxynonadecanoylamino)butanoyl]-Gly[Arg1,His14,Arg17,Pro21,Pro27,Pro34]-h-amylin (peptide)
peptide: {C20 diacid-γGlu}-GRCNTATCATQRLAHFLRHSSPNFGAIPSSTNVGPNTY-NH2
modifications: disulfide 3-8
SMILES: CC[C@H](C)[C@H](NC(=O)[C@H](C)NC(=O)CNC(=O)[C@H](Cc1ccccc1)NC(=O)[C@H](CC(N)=O)NC(=O)[C@@H]1CCCN1C(=O)[C@H](CO)NC(=O)[C@H](CO)NC(=O)[C@H](Cc1c[nH]cn1)NC(=O)[C@H](CCCNC(=N)N)NC(=O)[C@H](CC(C)C)NC(=O)[C@H](Cc1ccccc1)NC(=O)[C@H](Cc1c[nH]cn1)NC(=O)[C@H](C)NC(=O)[C@H](CC(C)C)NC(=O)[C@H](CCCNC(=N)N)NC(=O)[C@H](CCC(N)=O)NC(=O)[C@@H](NC(=O)[C@H](C)NC(=O)[C@@H]1CSSC[C@H](NC(=O)[C@H](CCCNC(=N)N)NC(=O)CNC(=O)CC[C@H](NC(=O)CCCCCCCCCCCCCCCCCCC(=O)O)C(=O)O)C(=O)N[C@@H](CC(N)=O)C(=O)N[C@@H]([C@@H](C)O)C(=O)N[C@@H](C)C(=O)N[C@@H]([C@@H](C)O)C(=O)N1)[C@@H](C)O)C(=O)N1CCC[C@H]1C(=O)N[C@@H](CO)C(=O)N[C@@H](CO)C(=O)N[C@H](C(=O)N[C@@H](CC(N)=O)C(=O)N[C@H](C(=O)NCC(=O)N1CCC[C@H]1C(=O)N[C@@H](CC(N)=O)C(=O)N[C@H](C(=O)N[C@@H](Cc1ccc(O)cc1)C(N)=O)[C@@H](C)O)C(C)C)[C@@H](C)O
notes: also called -1G, 1R, 14H, 17R, 21P, 27P, 34P
B3: N^ε-[2-[2-[2-[[(4S)-4-carboxy-4-(19-carboxynonadecanoylamino)butanoyl]amino]ethoxy]ethoxy]acetyl]Lys[Arg1,Arg17,Pro21,Pro27,His35]-h-amylin (peptide)
peptide: K([AEEA-γGlu-C20 diacid])RCNTATCATQRLANFLRHSSPNFGAIPSSTNVGSHTY-NH2
modifications: disulfide 3-8; N-terminus assumed
SMILES: CC[C@H](C)[C@H](NC(=O)[C@H](C)NC(=O)CNC(=O)[C@H](Cc1ccccc1)NC(=O)[C@H](CC(N)=O)NC(=O)[C@@H]1CCCN1C(=O)[C@H](CO)NC(=O)[C@H](CO)NC(=O)[C@H](Cc1c[nH]cn1)NC(=O)[C@H](CCCNC(=N)N)NC(=O)[C@H](CC(C)C)NC(=O)[C@H](Cc1ccccc1)NC(=O)[C@H](CC(N)=O)NC(=O)[C@H](C)NC(=O)[C@H](CC(C)C)NC(=O)[C@H](CCCNC(=N)N)NC(=O)[C@H](CCC(N)=O)NC(=O)[C@@H](NC(=O)[C@H](C)NC(=O)[C@@H]1CSSC[C@H](NC(=O)[C@H](CCCNC(=N)N)NC(=O)[C@@H](N)CCCCNC(=O)COCCOCCNC(=O)CC[C@H](NC(=O)CCCCCCCCCCCCCCCCCCC(=O)O)C(=O)O)C(=O)N[C@@H](CC(N)=O)C(=O)N[C@@H]([C@@H](C)O)C(=O)N[C@@H](C)C(=O)N[C@@H]([C@@H](C)O)C(=O)N1)[C@@H](C)O)C(=O)N1CCC[C@H]1C(=O)N[C@@H](CO)C(=O)N[C@@H](CO)C(=O)N[C@H](C(=O)N[C@@H](CC(N)=O)C(=O)N[C@H](C(=O)NCC(=O)N[C@@H](CO)C(=O)N[C@@H](Cc1c[nH]cn1)C(=O)N[C@H](C(=O)N[C@@H](Cc1ccc(O)cc1)C(N)=O)[C@@H](C)O)C(C)C)[C@@H](C)O
notes: also called -1K, 1R, 17R, 21P, 27P, 35H
B4: N^ε-[(4S)-4-carboxy-4-(19-carboxynonadecanoylamino)butanoyl]Lys[Arg1,Arg17,Pro21,Pro27,His35]-h-amylin (peptide)
peptide: K([γGlu-C20 diacid])RCNTATCATQRLANFLRHSSPNFGAIPSSTNVGSHTY-NH2
modifications: disulfide 3-8; N-terminus assumed
SMILES: CC[C@H](C)[C@H](NC(=O)[C@H](C)NC(=O)CNC(=O)[C@H](Cc1ccccc1)NC(=O)[C@H](CC(N)=O)NC(=O)[C@@H]1CCCN1C(=O)[C@H](CO)NC(=O)[C@H](CO)NC(=O)[C@H](Cc1c[nH]cn1)NC(=O)[C@H](CCCNC(=N)N)NC(=O)[C@H](CC(C)C)NC(=O)[C@H](Cc1ccccc1)NC(=O)[C@H](CC(N)=O)NC(=O)[C@H](C)NC(=O)[C@H](CC(C)C)NC(=O)[C@H](CCCNC(=N)N)NC(=O)[C@H](CCC(N)=O)NC(=O)[C@@H](NC(=O)[C@H](C)NC(=O)[C@@H]1CSSC[C@H](NC(=O)[C@H](CCCNC(=N)N)NC(=O)[C@@H](N)CCCCNC(=O)CC[C@H](NC(=O)CCCCCCCCCCCCCCCCCCC(=O)O)C(=O)O)C(=O)N[C@@H](CC(N)=O)C(=O)N[C@@H]([C@@H](C)O)C(=O)N[C@@H](C)C(=O)N[C@@H]([C@@H](C)O)C(=O)N1)[C@@H](C)O)C(=O)N1CCC[C@H]1C(=O)N[C@@H](CO)C(=O)N[C@@H](CO)C(=O)N[C@H](C(=O)N[C@@H](CC(N)=O)C(=O)N[C@H](C(=O)NCC(=O)N[C@@H](CO)C(=O)N[C@@H](Cc1c[nH]cn1)C(=O)N[C@H](C(=O)N[C@@H](Cc1ccc(O)cc1)C(N)=O)[C@@H](C)O)C(C)C)[C@@H](C)O
notes: as for B3
B5: N{-1}-[(4S)-4-carboxy-4-(19-carboxynonadecanoylamino)butanoyl]-Gly[Arg1,His14,Arg17,Pro21,Pro27]-h-amylin (peptide)
peptide: {C20 diacid-γGlu}-GRCNTATCATQRLAHFLRHSSPNFGAIPSSTNVGSNTY-NH2
modifications: disulfide 3-8
SMILES: CC[C@H](C)[C@H](NC(=O)[C@H](C)NC(=O)CNC(=O)[C@H](Cc1ccccc1)NC(=O)[C@H](CC(N)=O)NC(=O)[C@@H]1CCCN1C(=O)[C@H](CO)NC(=O)[C@H](CO)NC(=O)[C@H](Cc1c[nH]cn1)NC(=O)[C@H](CCCNC(=N)N)NC(=O)[C@H](CC(C)C)NC(=O)[C@H](Cc1ccccc1)NC(=O)[C@H](Cc1c[nH]cn1)NC(=O)[C@H](C)NC(=O)[C@H](CC(C)C)NC(=O)[C@H](CCCNC(=N)N)NC(=O)[C@H](CCC(N)=O)NC(=O)[C@@H](NC(=O)[C@H](C)NC(=O)[C@@H]1CSSC[C@H](NC(=O)[C@H](CCCNC(=N)N)NC(=O)CNC(=O)CC[C@H](NC(=O)CCCCCCCCCCCCCCCCCCC(=O)O)C(=O)O)C(=O)N[C@@H](CC(N)=O)C(=O)N[C@@H]([C@@H](C)O)C(=O)N[C@@H](C)C(=O)N[C@@H]([C@@H](C)O)C(=O)N1)[C@@H](C)O)C(=O)N1CCC[C@H]1C(=O)N[C@@H](CO)C(=O)N[C@@H](CO)C(=O)N[C@H](C(=O)N[C@@H](CC(N)=O)C(=O)N[C@H](C(=O)NCC(=O)N[C@@H](CO)C(=O)N[C@@H](CC(N)=O)C(=O)N[C@H](C(=O)N[C@@H](Cc1ccc(O)cc1)C(N)=O)[C@@H](C)O)C(C)C)[C@@H](C)O
notes: also called -1G, 1R, 14H, 17R, 21P, 27P
B6: N^ε1-[(4S)-4-carboxy-4-(19-carboxynonadecanoylamino)butanoyl]-[Arg17,Pro21,Pro27]-h-amylin (peptide)
peptide: K([γGlu-C20 diacid])CNTATCATQRLANFLRHSSPNFGAIPSSTNVGSNTY-NH2
modifications: disulfide 2-7; N-terminus assumed
SMILES: CC[C@H](C)[C@H](NC(=O)[C@H](C)NC(=O)CNC(=O)[C@H](Cc1ccccc1)NC(=O)[C@H](CC(N)=O)NC(=O)[C@@H]1CCCN1C(=O)[C@H](CO)NC(=O)[C@H](CO)NC(=O)[C@H](Cc1c[nH]cn1)NC(=O)[C@H](CCCNC(=N)N)NC(=O)[C@H](CC(C)C)NC(=O)[C@H](Cc1ccccc1)NC(=O)[C@H](CC(N)=O)NC(=O)[C@H](C)NC(=O)[C@H](CC(C)C)NC(=O)[C@H](CCCNC(=N)N)NC(=O)[C@H](CCC(N)=O)NC(=O)[C@@H](NC(=O)[C@H](C)NC(=O)[C@@H]1CSSC[C@H](NC(=O)[C@@H](N)CCCCNC(=O)CC[C@H](NC(=O)CCCCCCCCCCCCCCCCCCC(=O)O)C(=O)O)C(=O)N[C@@H](CC(N)=O)C(=O)N[C@@H]([C@@H](C)O)C(=O)N[C@@H](C)C(=O)N[C@@H]([C@@H](C)O)C(=O)N1)[C@@H](C)O)C(=O)N1CCC[C@H]1C(=O)N[C@@H](CO)C(=O)N[C@@H](CO)C(=O)N[C@H](C(=O)N[C@@H](CC(N)=O)C(=O)N[C@H](C(=O)NCC(=O)N[C@@H](CO)C(=O)N[C@@H](CC(N)=O)C(=O)N[C@H](C(=O)N[C@@H](Cc1ccc(O)cc1)C(N)=O)[C@@H](C)O)C(C)C)[C@@H](C)O
notes: also called 17R, 21P, 27P

molecular target: T1, human amylin receptor (amylin 3(a) …); assay: SPA displacement of 125I-rat amylin, hAmylin 3(a) receptor membranes
Experimental: The binding assay was performed using scintillation proximity assay (SPA) beads (RPNQ0001) from PerkinElmer and cell membranes from the Amylin 3(a)/CRE-luc cells (as described in Assay (II)) were used. Membranes were prepared in the following way; the cells were rinsed with PBS and incubated with Versene for approximately 5 min before harvesting. The cells were flushed with PBS and the cell-suspension was centrifuged for 5 min at 1000 rpm. Cells were homogenized (ultrathurrax) in a buffer containing 20 mM Na-HEPES and 10 mM EDTA (pH 7.4) and centrifuged at 20.000 rpm for 15 min. The resulting pellet was resuspended, homogenized and centrifuged (20.000 rpm, 15 min) in a buffer containing 20 mM Na-HEPES and 0.1 mM EDTA (pH 7.4, buffer 2). The resulting pellet was resuspended in buffer 2 and protein concentration was measured (BCA protein Assay, Pierce). The homogenate was kept cold during the whole procedure. The membranes were kept at −80° C. until use. The assay was performed in a 384 well Optiplate (PerkinElmer) in a total volume of 40 ul. Membranes were mixed with SPA beads. Final concentration of membranes 35 ng/μL final and SPA beads was 0.05 mg/well. Test-compounds were dissolved in DMSO and further diluted in assay buffer (50 mM Hepes, pH 7.4, 1 mM CaCl2, 5 mM MgCl₂, 0.1% OA and 0.02% Tween20). […] The final mixture was incubated with shaking at 400 rpm for 120 min at 25° C. prior to centrifugation (1500 rpm, 10 min). Samples were analyzed on TopCounter™ (Packard). The IC₅₀ was calculated using (one site binding competition analysis) GraphPad Prism5 as a measure of receptor affinity.

For B1, the IC50 was 0.556 nM.

molecular target: T2, human amylin receptor; assay: SPA competition binding, displacement of 125I-rat amylin from membranes with human amylin 3(a) receptor (Assay V)
Summary of the method: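 Membranes from BHK Amylin 3(a)/CRE-luc cells (35 ng/μL final) were mixed with SPA beads and test compounds in 50 mM Hepes pH 7.4 with 1 mM CaCl2, 5 mM MgCl₂, 0.1% OA and 0.02% Tween20. Incubation ran 120 min at 25° C with shaking; IC₅₀ came from one-site competition fitting.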

Going from B2 to B3, the IC50 rises from 0.217 nM to 0.552 nM (2.5-fold).

B4 and B5 are within 1.5-fold of each other in IC50: 0.275 nM for the first, 0.348 nM for the second.

Binder B6 has an IC50 of 0.443 nM.
